Results as given in PMC9700739.

Key:
[1] = molecular target: AMS2b E2E1-I53-50A (hepatitis C virus, strain AMS2b); test: non-reducing SDS-PAGE; purified protein on a non-reducing gel; one band larger than 250 kDa, disulfide-bonded trimer
[2] = molecular target: AMS0232 E2E1-I53-50A (hepatitis C virus, isolate AMS0232 (genotype 1a)); test: as above
[3] = molecular target: AMS0232 E2E1-I53-50A (hepatitis C virus, isolate AMS0232 (genotype 1a)); test: SEC; Strep-Tactin-purified E2E1-I53-50A alone on Superdex 200 Increase 10/300 GL or Superose 6 Increase 10/300 GL; TBS/5% glycerol; elutes as a trimer
[4] = molecular target: H77 E2E1-I53-50A (hepatitis C virus, strain H77); test: non-reducing SDS-PAGE; purified protein on a non-reducing gel; one band larger than 250 kDa, disulfide-bonded trimer
[5] = molecular target: UKNP2.2.1 E2E1-I53-50A (hepatitis C virus, strain UKNP2.2.1 / UKNP2.1.1); test: as above
[6] = molecular target: UKNP4.1.1 E2E1-I53-50A (hepatitis C virus, strain UKNP4.1.1); test: as above
[7] = molecular target: UKNP5.2.1 E2E1-I53-50A (hepatitis C virus, strain UKNP5.2.1); test: as above
[8] = molecular target: UKNP6.1.2 E2E1-I53-50A (hepatitis C virus, strain UKNP6.1.2); test: as above

AMS2b E2E1-I53-50A (complex) gave a stoichiometry N [1] of 3.

Work on AMS0232 E2E1-I53-50A (complex) yielded a stoichiometry N [2] of 3 and a stoichiometry N [3] of 3.

Substance H77 E2E1-I53-50A (complex) has a stoichiometry N [4] of 3.

Substance UKNP2.2.1 E2E1-I53-50A has a stoichiometry N [5] of 3.

Work on UKNP4.1.1 E2E1-I53-50A (complex) yielded a stoichiometry N [6] of 3.

UKNP5.2.1 E2E1-I53-50A (complex) gave a stoichiometry N [7] of 3.

Work on UKNP6.1.2 E2E1-I53-50A (complex) yielded a stoichiometry N [8] of 3.
